Measured values from article PMC11474084, “Capturing a methanogenic carbon monoxide dehydrogenase/acetyl-CoA synthase complex via cryogenic electron microscopy” (Proceedings of the National Academy of Sciences of the …, 2024).

B1: Methanosarcina thermophila acetyl-CoA synthase (MetACS) β subunit (enzyme, UniProt A0A0E3NEI1 1-472, looked up)
chain: MSEFPFEISPMFEGERVRKEGMFVELGGPKSLGLELVRAKPMDEIEDGKVTIVGPDLKDMEEGKTYPWAMIFHVGGELVEPDLESVIERRVHDFINYCQGIMHLNQRYDVWMRISKDTAAKMDSFEPFGKAVMMLFKTELPFIEKMQVTFYTDQAEVEKQMAEAMEIFKARDARTKDLHDEDVDVFYGCTLCQSFAPTNVCVVSPDRVSLCGAINWFDGRAAAKVDPEGPQFAIEKGELLDAKTGEYSGVNEVAKKLSSGEFDKIKLHSFFDAPHTSCGCFEVVGFYIPEVDGIGWVNREYQGMAPNGLGFSTMAGQTGGGKQIVGFLGIGINYFYSPKFIQADGGWNRVVWLPSMLKEKIDEAIPDDMKDKIATEKDVTDIESLKTFLKEKNHPVVANWAAEAEEEEEEEEEEEEVAAEAAPMMMPAAGFQMPAMPAMPMMSGGAGGIKLTFKNAKITIDRMIISEKKEKK
notes: β (ACS) subunit of the ACDS complex, Methanosarcina thermophila strain TM-1; native protein; the model building counts residues 1 to 472, of which 398 to 472 (C-terminal extension) had no EM density; A2 domain residues 4 to 151, A3 domain residues 186 to 397; Carries the Ni-Fe-S A-cluster, with density modelled as CO on the proximal nickel; The deposited coordinates hold only about residues 1-397 …
B2: Methanosarcina thermophila carbon monoxide dehydrogenase (MetCODH) α subunit (enzyme, UniProt A0A0E3ND19 1-803, looked up)
chain: MSKLTTGSFSIEDLESVQITINNIVGAAKEAAEKAEEELGPMGPTPFPTAATVRDWSFTLFDRYEPVYTPMCDQCCYCTFGPCNLEGNRRGACGLDMKGQAAREFFLRCITGCACHSAHGRHLLDHIISIFGEDMPINMGASNVIAPNIQLITGRQPKTLGDLKPIMEYVEEELGQLLATVHAGQEGAAIDYDNKAMLAGILDHVGMEVSDIAQVTALGFPKSDPEAPLVEVGMGTLDASKPVIIAIGHNVAGVTYIMDYMEDNNLTDKMEIGGLCCTAFDMTRYKREDRKPPYAKIVGTISKELKVVRSGIPDVIVIDEQCVRADLVEEGKKLKIPVIASNEKVMYGLPDRTNDDVDAIIEDIKTGKIPGCVMLDYEKLGELVPRLAMEMAPLREGISAIPSDEEMASLVAKCVACGECALACPEELDIPDAIQAAKEGDFTALDFLHDLCVGCRRCEQVCNKEIPILSVIDKAAQKAIAEEKGLVRAGRGQVSDAEIRAEGLNLVMGTTPGVIAIIGCANYPAGSKDVYRIAEEFLNRNYIVAVSGCSAMDIGMYKDADGKTLYERFPGRFERGNILNTGSCVSNSHISGTCHKVAAIFAGRNLSGNLAEIADYTLNRVGAVGLAWGAYSQKAAAIGTGCNMYGIPAVLGPHSGKYRRALIAKTYDENKWKVYDSRNGSELDIPPSPEFLITTAETWQEACVLLAKNCIRPSDNNMGRSIKLTHWIELSEKYLGVLPEDWWKFVRHEADLPLSRREELLKKLETEHGWEIDWKKKKIISGPKIKFDVSSQPTNLKRLCKEA
notes: α subunit of the CODH component of the acetyl-CoA decarbonylase/synthase (ACDS) complex, Methanosarcina thermophila strain TM-1; source: purified from M. thermophila strain TM-1 as part of the ACDS complex (Sepharose CL-6B); subcomplexes formed by dissociation on the cryo-EM grid

What was measured:
[1] = target: B2; assay: cryo-EM structure; purified native ACDS complex, 4 mg/mL in 25 mM MOPS, 25 mM Na2SO4, pH 7.2; chameleon-plunged, dispense-to-plunge time 150 ms; on-grid dissociation gave CODH tetramer (2.8 Å), CODH/ACS pentamer and hexamer (3.2 Å each); settings: both partners purified
[2] = target: the molecule itself; assay: as above

| Binder | binding result [1] | binding result [2] |
| --- | --- | --- |
| B1 | binds | – |
| B2 | – | binds |
